The target in assay [1] is low density lipoprotein receptor-related protein 1 (LRP1), full-length (UniProt Q07954).
Assay [2] has the same target. The source holds these as a separate data set.
The next assay concerns the target T1, ADAM17 ectodomain (UniProt P78536 215-671).
T1 construct: ADAM17, ectodomain; source: gift from Professor Gillian Murphy (University of Cambridge)
As to the kind of experiment: enzyme inhibition under equilibrium conditions (Ki(app), tight binding equation); apparent; ADAM17 preincubated with wild-type or mutant TIMP-3 (0.25-25 nM) 1 h at 37 °C, residual activity on a fluorescence-quenched substrate; 50 mM Tris-HCl pH 7.5, 25 mM NaCl, 10 mM CaCl2, 0.05% Brij 35, 0.02% NaN3. The following applies: both partners purified.

For assay [3], the target named is T2, catalytic domain of MMP-2 (MMP-2ΔC) (UniProt P08253 110-444).
T2 construct: MMP-2, catalytic domain
Description: enzyme inhibition under equilibrium conditions (Ki(app), tight binding equation); apparent; metalloproteinase (0.5-1 nM) preincubated with wild-type or mutant TIMP-3 (0.25-25 nM) 1 h at 37 °C, residual activity on fluorescence-quenched substrates; 50 mM Tris-HCl pH 7.5, 150 mM NaCl, 10 mM CaCl2, 0.05% Brij 35, 0.02% NaN3. The settings on record: both partners purified.

Assay [4] addresses T3, ADAMTS-5 lacking the C-terminal thrombospondin domain (UniProt Q9UNA0 262-874).
T3 construct: ADAMTS-5 without its C-terminal thrombospondin domain
T3 sequence (looked up): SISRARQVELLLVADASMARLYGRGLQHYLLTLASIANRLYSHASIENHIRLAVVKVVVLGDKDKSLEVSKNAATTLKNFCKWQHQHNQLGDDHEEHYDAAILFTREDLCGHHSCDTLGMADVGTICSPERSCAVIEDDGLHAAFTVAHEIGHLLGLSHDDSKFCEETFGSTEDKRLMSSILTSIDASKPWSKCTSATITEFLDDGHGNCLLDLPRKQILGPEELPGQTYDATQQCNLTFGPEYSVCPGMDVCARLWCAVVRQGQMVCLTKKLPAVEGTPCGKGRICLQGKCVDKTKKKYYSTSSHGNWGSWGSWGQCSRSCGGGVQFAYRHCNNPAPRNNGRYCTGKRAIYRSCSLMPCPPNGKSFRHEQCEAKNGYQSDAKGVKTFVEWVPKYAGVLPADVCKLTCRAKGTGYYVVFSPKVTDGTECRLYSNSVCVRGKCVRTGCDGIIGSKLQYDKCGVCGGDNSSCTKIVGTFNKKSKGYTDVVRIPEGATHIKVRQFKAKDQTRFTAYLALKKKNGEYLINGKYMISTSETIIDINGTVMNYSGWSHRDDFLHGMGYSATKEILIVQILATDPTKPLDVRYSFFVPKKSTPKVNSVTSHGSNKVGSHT
The assay is described as above. The settings on record: both partners purified.

For assay [5], the target named is T4, ADAMTS-4 lacking the C-terminal spacer domain (UniProt O75173 213-685).
T4 construct: ADAMTS-4 without its C-terminal spacer domain
T4 sequence (looked up): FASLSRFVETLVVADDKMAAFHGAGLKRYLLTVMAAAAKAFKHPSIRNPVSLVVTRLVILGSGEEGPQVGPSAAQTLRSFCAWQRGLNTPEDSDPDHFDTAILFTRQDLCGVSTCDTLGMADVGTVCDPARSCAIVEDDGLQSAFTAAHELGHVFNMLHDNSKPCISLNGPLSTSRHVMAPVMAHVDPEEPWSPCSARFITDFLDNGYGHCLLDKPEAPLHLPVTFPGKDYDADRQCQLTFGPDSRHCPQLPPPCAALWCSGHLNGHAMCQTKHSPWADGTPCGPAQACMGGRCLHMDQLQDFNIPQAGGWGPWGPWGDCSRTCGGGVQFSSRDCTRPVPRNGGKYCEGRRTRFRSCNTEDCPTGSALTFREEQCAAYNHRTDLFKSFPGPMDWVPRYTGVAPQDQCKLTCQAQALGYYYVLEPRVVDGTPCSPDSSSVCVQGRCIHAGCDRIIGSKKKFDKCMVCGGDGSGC
Described as above. The following applies: both partners purified.

The target in assay [6] is T5, catalytic domain of MMP-3 (MMP-3ΔC) (UniProt P08254 100-272).
T5 construct: MMP-3, catalytic domain
T5 sequence (P08254 100-272, stated change not applied): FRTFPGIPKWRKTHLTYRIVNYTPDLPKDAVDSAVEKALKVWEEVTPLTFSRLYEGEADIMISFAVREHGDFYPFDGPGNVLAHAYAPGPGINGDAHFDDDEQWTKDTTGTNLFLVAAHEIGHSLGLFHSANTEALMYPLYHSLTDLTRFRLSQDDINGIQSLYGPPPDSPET
The description is as above. The following applies: both partners purified.

Assay [7] deals with T6, catalytic domain of MMP-1 (MMP-1ΔC) (UniProt P03956 100-269).
T6 construct: MMP-1, catalytic domain
T6 sequence (looked up): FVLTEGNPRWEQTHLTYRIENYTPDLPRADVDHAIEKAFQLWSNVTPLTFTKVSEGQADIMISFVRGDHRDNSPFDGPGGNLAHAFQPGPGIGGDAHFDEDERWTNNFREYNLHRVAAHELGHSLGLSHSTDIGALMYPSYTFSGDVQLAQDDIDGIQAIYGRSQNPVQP
Described as above. The following applies: both partners purified.

In assay [8] the target is low density lipoprotein receptor-related protein 1 (LRP1), full-length (UniProt Q07954 20-4544). As to the kind of experiment: cell-based or functional assay.
Assay [9] addresses T3, ADAMTS-5 lacking the C-terminal …. Description: enzyme inhibition under equilibrium conditions (Ki(app), tight binding equation); apparent; ADAMTS-5 (0.5 nM) preincubated with TIMP-3 (0.5-10 nM) with heparin (100 nM) 1 h at 37 °C, residual activity 18 h at 37 °C; 50 mM Tris-HCl pH 7.5, 150 mM NaCl, 10 mM CaCl2, 0.05% Brij 35, 0.02% NaN3. The settings on record: both partners purified.

Numbering of substitutions follows the chain as printed. In names and notes the source's numbering stands.

low density lipoprotein receptor-related protein 1 (LRP1), full-length (UniProt Q07954), sequence (Q07954 20-4544): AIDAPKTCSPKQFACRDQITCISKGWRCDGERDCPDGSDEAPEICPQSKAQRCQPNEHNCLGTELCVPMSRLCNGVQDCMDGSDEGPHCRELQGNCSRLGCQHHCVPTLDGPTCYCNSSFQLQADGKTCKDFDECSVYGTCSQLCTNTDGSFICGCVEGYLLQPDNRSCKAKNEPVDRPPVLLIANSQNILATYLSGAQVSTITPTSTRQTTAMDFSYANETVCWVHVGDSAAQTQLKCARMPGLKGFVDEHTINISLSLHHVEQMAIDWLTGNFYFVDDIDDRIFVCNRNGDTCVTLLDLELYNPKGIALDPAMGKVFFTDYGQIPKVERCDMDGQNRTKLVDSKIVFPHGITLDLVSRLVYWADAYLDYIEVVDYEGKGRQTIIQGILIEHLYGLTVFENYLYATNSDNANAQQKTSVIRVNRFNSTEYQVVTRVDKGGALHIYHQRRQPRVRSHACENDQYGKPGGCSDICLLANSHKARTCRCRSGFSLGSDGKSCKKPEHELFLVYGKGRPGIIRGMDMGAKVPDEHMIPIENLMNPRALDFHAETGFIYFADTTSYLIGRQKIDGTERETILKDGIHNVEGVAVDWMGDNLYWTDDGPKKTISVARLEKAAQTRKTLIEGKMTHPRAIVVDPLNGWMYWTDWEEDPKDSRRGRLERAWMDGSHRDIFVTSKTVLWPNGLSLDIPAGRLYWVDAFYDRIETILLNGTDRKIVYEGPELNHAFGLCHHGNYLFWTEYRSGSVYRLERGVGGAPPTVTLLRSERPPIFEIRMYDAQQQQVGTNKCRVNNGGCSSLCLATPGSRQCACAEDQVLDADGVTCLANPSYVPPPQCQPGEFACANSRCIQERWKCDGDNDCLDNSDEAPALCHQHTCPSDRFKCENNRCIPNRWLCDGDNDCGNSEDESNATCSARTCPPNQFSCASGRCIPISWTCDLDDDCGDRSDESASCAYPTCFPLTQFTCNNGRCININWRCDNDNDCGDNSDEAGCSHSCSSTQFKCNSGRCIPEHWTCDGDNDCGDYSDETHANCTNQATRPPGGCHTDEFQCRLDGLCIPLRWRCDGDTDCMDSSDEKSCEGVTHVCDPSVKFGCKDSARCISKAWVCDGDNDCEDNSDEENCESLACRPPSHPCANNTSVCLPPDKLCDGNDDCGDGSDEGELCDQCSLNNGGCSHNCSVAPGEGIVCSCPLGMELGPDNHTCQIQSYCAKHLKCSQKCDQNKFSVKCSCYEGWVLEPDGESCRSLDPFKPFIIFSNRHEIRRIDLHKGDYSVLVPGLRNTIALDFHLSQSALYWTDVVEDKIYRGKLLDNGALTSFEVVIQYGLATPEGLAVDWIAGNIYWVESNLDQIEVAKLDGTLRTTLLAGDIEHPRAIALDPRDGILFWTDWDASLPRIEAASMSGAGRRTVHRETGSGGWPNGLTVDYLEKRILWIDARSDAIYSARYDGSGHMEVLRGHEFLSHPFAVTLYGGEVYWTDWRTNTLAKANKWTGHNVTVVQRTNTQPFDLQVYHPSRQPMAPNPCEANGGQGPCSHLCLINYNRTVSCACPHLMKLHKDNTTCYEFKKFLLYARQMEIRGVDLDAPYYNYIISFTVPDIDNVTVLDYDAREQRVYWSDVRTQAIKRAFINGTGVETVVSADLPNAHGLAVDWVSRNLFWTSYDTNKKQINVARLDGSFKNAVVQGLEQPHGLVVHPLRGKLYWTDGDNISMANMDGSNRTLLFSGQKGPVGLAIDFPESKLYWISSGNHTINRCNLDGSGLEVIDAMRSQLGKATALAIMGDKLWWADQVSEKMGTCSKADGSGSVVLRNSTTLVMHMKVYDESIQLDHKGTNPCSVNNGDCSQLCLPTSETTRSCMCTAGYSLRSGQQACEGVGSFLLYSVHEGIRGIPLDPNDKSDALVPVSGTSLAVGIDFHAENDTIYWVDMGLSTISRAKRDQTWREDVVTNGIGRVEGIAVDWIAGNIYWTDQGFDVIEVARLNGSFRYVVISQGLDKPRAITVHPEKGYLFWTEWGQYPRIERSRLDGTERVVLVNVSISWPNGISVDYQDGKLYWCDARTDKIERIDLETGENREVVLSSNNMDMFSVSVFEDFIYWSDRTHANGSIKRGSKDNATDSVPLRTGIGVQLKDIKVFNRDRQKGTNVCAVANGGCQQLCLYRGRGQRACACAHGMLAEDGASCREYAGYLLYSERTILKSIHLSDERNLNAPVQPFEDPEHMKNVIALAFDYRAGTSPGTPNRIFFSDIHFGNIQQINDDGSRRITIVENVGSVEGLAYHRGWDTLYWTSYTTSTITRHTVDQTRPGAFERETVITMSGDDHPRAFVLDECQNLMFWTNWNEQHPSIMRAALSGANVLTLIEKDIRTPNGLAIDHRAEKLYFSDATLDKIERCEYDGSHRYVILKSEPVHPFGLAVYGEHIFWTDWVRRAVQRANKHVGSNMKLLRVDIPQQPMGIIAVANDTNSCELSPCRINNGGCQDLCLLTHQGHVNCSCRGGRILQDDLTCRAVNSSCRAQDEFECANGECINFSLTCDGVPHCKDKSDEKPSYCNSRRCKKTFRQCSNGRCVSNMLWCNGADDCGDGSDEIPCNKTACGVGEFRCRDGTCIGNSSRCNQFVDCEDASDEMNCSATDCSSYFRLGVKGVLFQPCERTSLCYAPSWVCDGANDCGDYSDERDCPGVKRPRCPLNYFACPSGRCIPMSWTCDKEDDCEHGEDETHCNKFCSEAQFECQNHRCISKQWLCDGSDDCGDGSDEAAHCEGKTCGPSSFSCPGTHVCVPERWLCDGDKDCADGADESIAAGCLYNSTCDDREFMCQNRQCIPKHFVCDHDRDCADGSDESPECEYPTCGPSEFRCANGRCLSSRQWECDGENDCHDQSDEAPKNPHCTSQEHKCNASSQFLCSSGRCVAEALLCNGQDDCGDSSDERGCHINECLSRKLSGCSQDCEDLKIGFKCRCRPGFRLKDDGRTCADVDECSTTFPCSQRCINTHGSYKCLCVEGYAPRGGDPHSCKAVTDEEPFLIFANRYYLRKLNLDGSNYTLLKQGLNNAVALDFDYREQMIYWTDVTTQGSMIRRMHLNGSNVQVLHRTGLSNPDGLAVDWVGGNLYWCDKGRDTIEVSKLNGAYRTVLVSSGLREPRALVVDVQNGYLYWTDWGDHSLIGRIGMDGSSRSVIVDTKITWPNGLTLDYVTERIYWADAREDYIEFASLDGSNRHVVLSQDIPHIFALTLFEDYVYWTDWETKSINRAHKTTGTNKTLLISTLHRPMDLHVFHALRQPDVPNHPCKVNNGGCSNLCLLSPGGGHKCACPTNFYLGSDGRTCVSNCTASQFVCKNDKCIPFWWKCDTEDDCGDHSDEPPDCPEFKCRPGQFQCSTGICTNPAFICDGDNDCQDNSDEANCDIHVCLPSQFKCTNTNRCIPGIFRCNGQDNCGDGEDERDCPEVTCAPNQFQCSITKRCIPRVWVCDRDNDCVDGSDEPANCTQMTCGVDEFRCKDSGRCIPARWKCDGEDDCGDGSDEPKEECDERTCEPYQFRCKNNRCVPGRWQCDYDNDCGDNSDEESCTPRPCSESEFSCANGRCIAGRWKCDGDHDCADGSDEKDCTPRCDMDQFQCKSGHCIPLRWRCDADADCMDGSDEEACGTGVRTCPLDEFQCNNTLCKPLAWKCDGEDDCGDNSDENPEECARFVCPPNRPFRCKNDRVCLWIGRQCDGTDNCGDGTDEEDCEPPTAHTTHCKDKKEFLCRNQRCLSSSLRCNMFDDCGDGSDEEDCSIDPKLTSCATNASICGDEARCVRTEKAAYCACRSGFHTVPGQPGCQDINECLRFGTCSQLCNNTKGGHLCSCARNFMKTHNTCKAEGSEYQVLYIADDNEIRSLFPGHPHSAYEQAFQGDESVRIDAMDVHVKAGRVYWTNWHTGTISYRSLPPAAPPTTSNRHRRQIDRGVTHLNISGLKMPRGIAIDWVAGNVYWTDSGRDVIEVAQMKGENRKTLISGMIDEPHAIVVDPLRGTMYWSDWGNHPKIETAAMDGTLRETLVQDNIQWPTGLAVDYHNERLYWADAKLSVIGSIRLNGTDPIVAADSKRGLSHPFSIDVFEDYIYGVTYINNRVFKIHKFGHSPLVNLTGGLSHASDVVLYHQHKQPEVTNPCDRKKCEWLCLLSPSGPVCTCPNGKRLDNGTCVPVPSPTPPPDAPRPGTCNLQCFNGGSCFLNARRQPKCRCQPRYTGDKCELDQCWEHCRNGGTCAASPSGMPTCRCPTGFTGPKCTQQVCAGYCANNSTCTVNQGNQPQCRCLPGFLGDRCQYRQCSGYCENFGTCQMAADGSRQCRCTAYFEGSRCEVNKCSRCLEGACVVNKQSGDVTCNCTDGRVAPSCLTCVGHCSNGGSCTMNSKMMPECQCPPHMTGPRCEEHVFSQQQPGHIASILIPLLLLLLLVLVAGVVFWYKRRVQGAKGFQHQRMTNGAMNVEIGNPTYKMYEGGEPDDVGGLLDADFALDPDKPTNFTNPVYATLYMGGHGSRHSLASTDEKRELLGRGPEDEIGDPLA
T1 sequence (P78536 215-671): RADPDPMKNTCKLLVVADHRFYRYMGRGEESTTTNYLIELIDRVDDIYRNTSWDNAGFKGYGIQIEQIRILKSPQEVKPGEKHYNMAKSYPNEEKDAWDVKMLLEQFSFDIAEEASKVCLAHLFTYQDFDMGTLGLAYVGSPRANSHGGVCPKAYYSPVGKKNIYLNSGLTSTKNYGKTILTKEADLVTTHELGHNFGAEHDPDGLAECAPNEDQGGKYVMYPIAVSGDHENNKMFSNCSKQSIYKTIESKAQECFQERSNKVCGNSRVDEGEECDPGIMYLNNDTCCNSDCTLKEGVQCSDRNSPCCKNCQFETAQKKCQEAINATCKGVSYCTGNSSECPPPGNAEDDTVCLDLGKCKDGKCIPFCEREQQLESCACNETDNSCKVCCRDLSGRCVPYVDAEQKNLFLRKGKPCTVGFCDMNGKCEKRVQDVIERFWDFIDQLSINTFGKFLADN

B1: TIMP-3 K22A/K110A, C-terminally FLAG-tagged (natural protein)
chain: CTCSPSHPQDAFCNSDIVIRAAVVGKKLVKEGPFGTLVYTIKQMKMYRGFTKMPHVQYIHTEASESLCGLKLEVNKYQYLLTGRVYDGKMYTGLCNFVERWDQLTLSQRAGLNYRYHLGCNCKIKSCYYLPCFVTSKNECLWTDMLSNFGYPGYQSKHYACIRQKGGYCSWYRGWAPPDKSIINATDP
In assay [1], B1 gave a percentage remaining in the medium of HTB94 chondrosarcoma cells after 24 h (1 nM, anti-FLAG immunoblot and densitometry) above 50%.

B2: TIMP-3 K30A/K76A, C-terminally FLAG-tagged (natural protein)
chain: B1 chain with A22K, K30A, K76A, A110K
In assay [1], B2 displayed a percentage remaining in the medium of HTB94 chondrosarcoma cells after 24 h (1 nM, anti-FLAG immunoblot and densitometry) above 50%.

B3: TIMP-3 K157A, C-terminally FLAG-tagged (natural protein)
chain: B1 chain with A22K, A110K, K157A
For B3, the half-life of loss from the medium of HTB94 chondrosarcoma cells (1 nM, 0-24 h, anti-FLAG immunoblot and densitometry) in [2] came to 7.8 h.

B4: TIMP-3 K71A/K157A, C-terminally FLAG-tagged (natural protein)
chain: B1 chain with A22K, K71A, A110K, K157A
Consider B4, for which, in assay [1], the percentage remaining in the medium of HTB94 chondrosarcoma cells after 24 h (1 nM, anti-FLAG immunoblot and densitometry) was above 50%.

B5: wild-type TIMP-3 (tissue inhibitor of metalloproteinases-3), C-terminally FLAG-tagged (natural protein, UniProt P35625 24-211, looked up)
chain: B1 chain with A22K, A110K
notes: TIMP-3, secreted into the conditioned medium; source: for the screen also transiently transfected, conditioned medium dialyzed against TBS; not shown: FLAG, C-terminal, kept
Turning to B5, the Ki with ADAM17 ectodomain is 3.54 nM; in assay [3], 0.6 nM; in [4], 1.27 nM; in assay [5], 0.19 nM; in assay [6] it was 1.2 nM; in assay [7], 1.2 nM. In [8], the “half-life of loss from the medium of HTB94 chondrosarcoma cells (1 nM, 0-24 h, anti-FLAG immunoblot and densitometry)” value was found to be 3.6 h. The “half-life of uptake from the medium of LRP1 wild-type PEA10 cells (1 nM, 0-8 h); remained at the same level in the medium of LRP1-null PEA13 cells” value in assay [8] came to 1.9 h.

B6: TIMP-3 K45A/K89A, C-terminally FLAG-tagged (natural protein)
chain: B1 chain with A22K, K45A, K89A, A110K
Regarding B6, in [1], the percentage remaining in the medium of HTB94 chondrosarcoma cells after 24 h (1 nM, anti-FLAG immunoblot and densitometry) is above 50%.

B7: TIMP-3 K42A/K157A, C-terminally FLAG-tagged (natural protein)
chain: B1 chain with A22K, K42A, A110K, K157A
Consider B7, for which, in [1], the percentage remaining in the medium of HTB94 chondrosarcoma cells after 24 h (1 nM, anti-FLAG immunoblot and densitometry) is above 50%.

B8: TIMP-3 K71A, C-terminally FLAG-tagged (natural protein)
chain: B1 chain with A22K, K71A, A110K
With B8, the half-life of loss from the medium of HTB94 chondrosarcoma cells (1 nM, 0-24 h, anti-FLAG immunoblot and densitometry) in [2] stood at 12.9 h.

B9: TIMP-3 K42A, C-terminally FLAG-tagged (natural protein)
chain: B1 chain with A22K, K42A, A110K
In turn, B9 yielded a half-life of loss from the medium of HTB94 chondrosarcoma cells (1 nM, 0-24 h, anti-FLAG immunoblot and densitometry) in assay [2] of 8.8 h.

B10: TIMP-3 K27A/K45A, C-terminally FLAG-tagged (natural protein)
chain: B1 chain with A22K, K27A, K45A, A110K
As for B10, the percentage remaining in the medium of HTB94 chondrosarcoma cells after 24 h (1 nM, anti-FLAG immunoblot and densitometry) in assay [1] is above 50%.

B11: TIMP-3 K22A/K157A, C-terminally FLAG-tagged (natural protein)
chain: B1 chain with A110K, K157A
As to B11, the percentage remaining in the medium of HTB94 chondrosarcoma cells after 24 h (1 nM, anti-FLAG immunoblot and densitometry) in assay [1] was above 50%.

B12: TIMP-3 K30A/K52A, C-terminally FLAG-tagged (natural protein)
chain: B1 chain with A22K, K30A, K52A, A110K
Consider B12, for which the percentage remaining in the medium of HTB94 chondrosarcoma cells after 24 h (1 nM, anti-FLAG immunoblot and densitometry) in [1] was above 50%.

B13: TIMP-3 K26A/K45A, C-terminally FLAG-tagged (natural protein, UniProt P35625 24-211, looked up)
chain: B1 chain with A22K, K26A, K45A, A110K
notes: as for B5
Consider B13, for which the Ki with ADAM17 ectodomain amounted to 3.78 nM; in [3], 0.63 nM; in assay [4], 0.95 nM; in assay [5], 0.12 nM; in assay [6] it was 0.92 nM; in assay [7] it was 0.52 nM.

B14: TIMP-3 K42A/K110A, C-terminally FLAG-tagged (natural protein, UniProt P35625 24-211, looked up)
chain: B1 chain with A22K, K42A
notes: TIMP-3, secreted into the conditioned medium; The discussion once calls this mutant K45A/K110A; source: for the screen also transiently transfected, conditioned medium dialyzed against TBS; not shown: FLAG, C-terminal, kept
Regarding B14, the Ki amounted to 2.34 nM with ADAM17 ectodomain; 0.6 nM in [3]; 1.12 nM in assay [4]; 0.24 nM in assay [5]; 1.4 nM in [6]; 0.6 nM in assay [7]. Also, the Ki in [9] came to 1.2 nM.
